# Measured values as given in article PMC12152883, “Bile acids inhibit equilibrative adenosine transport to alter adenosine receptor signaling in cholestasis” (The Journal of Biological Chemistry, 2025).
# Several values for one entry are separate records, joined by “and”; a condition that tells them apart may be missing. Identical values can stand only once. Like-named read-outs stand apart in the source and are kept apart here.
# T1: ENT2 (Homo sapiens, UniProt Q14542)
# T1 sequence (Q14542 1-456): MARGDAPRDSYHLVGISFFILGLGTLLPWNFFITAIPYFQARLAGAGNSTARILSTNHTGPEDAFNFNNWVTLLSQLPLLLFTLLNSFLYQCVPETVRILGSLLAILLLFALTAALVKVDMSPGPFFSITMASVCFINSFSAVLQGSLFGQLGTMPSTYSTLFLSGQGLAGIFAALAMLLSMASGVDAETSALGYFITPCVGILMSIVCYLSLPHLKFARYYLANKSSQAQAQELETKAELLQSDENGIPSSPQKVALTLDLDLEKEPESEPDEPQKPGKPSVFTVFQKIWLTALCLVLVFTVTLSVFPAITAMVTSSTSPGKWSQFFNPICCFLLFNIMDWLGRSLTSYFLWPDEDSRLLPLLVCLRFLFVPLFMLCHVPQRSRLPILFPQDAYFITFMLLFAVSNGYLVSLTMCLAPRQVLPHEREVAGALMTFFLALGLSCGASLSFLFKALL
# B1: ENT2 (Homo sapiens) (protein)
# chain: T1 sequence (Q14542 1-456)
# notes: The complete ORF of ENT1 (amplified using forward primer); expressed in transfected cells; host or cells: Xenopus laevis oocytes injected with in vitro-transcribed capped mRNA from pOX-hENT2
# Experiments:
# ENT2 = molecular target: T1, ENT2; conditions: cited from earlier work
# ENT3 = system: ENT3; design: method as in PMID 34144123; conditions: read-out: km of ENT3 for Ado transport; cited from earlier work
# [1] = substrate: C[C@H](CCC(=O)O)[C@H]1CC[C@H]2[C@@H]3CC[C@@H]4C[C@H](O)CC[C@]4(C)[C@H]3C[C@H](O)[C@]12C; test: Radiolabeled BA transport in ENT2 mRNA-injected Xenopus oocytes; type: cell-based, human; conditions: pH 7.4
# Experimental: (§1) We used a Xenopus oocyte-based transport assay that was previously used to examine BA transport by plasma membrane–directed ENT3 with a truncated N-terminus (that harbors lysosomal targeting motif) to experimentally verify whether ENT2 is capable of translocating BAs across the cell membrane ([24]). We tested both ENT1 and ENT2 along with CNT2, a purine nucleoside-specific concentrative transporter, to investigate their capacities to transport radiolabeled BAs. […] Transport was measured at pH 7.4, which is the closest pH to the pH of the extracellular fluid in which cells are exposed to solutes such as BAs to conduct plasma membrane transport ([29]).
# (§2) The generated pOX expression constructs were linearized with either the Not1 or Sac1 restriction enzymes. The digested products were purified via phenol‒chloroform extraction. The mRNAs were synthesized using mMESSAGE mMACHINE (Ambion) transcription kits according to the manufacturer’s instructions. The mRNAs were purified via lithium precipitation. Oocytes were procured from Ecocyte. Prior to experiments, procured oocytes were defolliculated by treating with collagenase A-OR II solution followed by washing with Barth’s solution. Following microscopic verification, selected oocytes were incubated to recover overnight at 25 °C in a shaker incubator. Fifty nanoliters (400–800 ng/μl) of equal amounts of mRNAs were injected into defolliculated oocytes the next day. Expression of plasmids was analyzed after RNA isolation from oocyte extracts and conducting qPCR analysis with gene-specific primers as described earlier ([30]). The injected oocytes were incubated at 15 °C for 24 h before transport assays were performed. The uptake of radiolabeled substrates was measured after a 30 min incubation in transport buffer (100 mM NaCl, 2 mM KCl, 1 mM CaCl2, 1 mM MgCl2, and 10 mM Hepes, pH 7.4) at room temperature. Uptake was terminated by washing the oocytes three times with arrest buffer containing 20 mM uridine. Individual oocytes were shaken overnight in 10% SDS for complete dissolution, and then the radioactivity was quantified with a Beckman liquid scintillation counter. The data are presented as the mean ± SD (n = 8–12 oocytes). A representative experiment from 3 to 5 independent experiments is presented.
# [2] = substrate: C[C@H](CCC(=O)O)[C@H]1CC[C@H]2[C@@H]3[C@H](O)C[C@@H]4C[C@H](O)CC[C@]4(C)[C@H]3C[C@H](O)[C@]12C; test: as above; type: cell-based, human; conditions: pH 7.4
# Experimental: as §1, §2
# [3] = other: printed in picture Fig. 2B
molecule,measurement,setting,value
Nc1nc2c(ncn2[C@@H]2O[C@H](CO)[C@@H](O)[C@H]2O)c(=O)[nH]1 [guanosine],Km,"ENT2; cloned ENT2-expressing ENT-deficient PK15 cells, read-out: km for guanosine, ENT2",2700 µM
"Nc1ncnc2c1ncn2[C@@H]1O[C@H](CO)[C@@H](O)[C@H]1O [Ado, adenosine]",Km,ENT2; read-out: Km of ENT2 for Ado transport,~100 µM
same,Km,ENT3,2000 µM
B1,Km,"[1]; other: oocytes, Fig. 2B",491 µM
same,Km,[1]; [3],500 µM
same,Km,"[2]; other: oocytes, Fig. 2B",195 µM and 200 µM
same,Km,[2]; [3],200 µM
